The record followed here is patent CN116745314A.

The assay has as its target spike glycoprotein of live SARS-CoV-2 (isolate USA-WA1/2020) (SARS-CoV-2) (UniProt P0DTC2). Briefly: cell-based or functional assay.

In turn, S2E12-LS (antibody) gave an EC50 (live SARS-CoV-2-luc neutralisation, MOI 0.1, 6 h) of 5 ng/mL; an EC90 (live SARS-CoV-2-luc neutralisation, MOI 0.1, 6 h) of 30 ng/mL; an IC50 (live SARS-CoV-2-luc neutralisation, MOI 0.1, 6 h) of 4.84 ng/mL.
